US20140087995A1 (published 2014)
Numbered stars: 1 amine (or outer) side, 2 acyl side, 3 side chain; on linkers, the order of the positions; unused ones are H or OH. Bridge positions count the residues as written; N and C are the ends. Side chains are listed from the residue outwards. Ends that are not written are not given here. * marks the point of attachment. C20 diacid = O=C(O)CCCCCCCCCCCCCCCCCCC(=O)*; γGlu = O=C(O)[C@H](CCC(=O)[*:2])N[*:1]

T1: human calcitonin receptor (human, UniProt P30988 25-474)
T1 sequence (looked up): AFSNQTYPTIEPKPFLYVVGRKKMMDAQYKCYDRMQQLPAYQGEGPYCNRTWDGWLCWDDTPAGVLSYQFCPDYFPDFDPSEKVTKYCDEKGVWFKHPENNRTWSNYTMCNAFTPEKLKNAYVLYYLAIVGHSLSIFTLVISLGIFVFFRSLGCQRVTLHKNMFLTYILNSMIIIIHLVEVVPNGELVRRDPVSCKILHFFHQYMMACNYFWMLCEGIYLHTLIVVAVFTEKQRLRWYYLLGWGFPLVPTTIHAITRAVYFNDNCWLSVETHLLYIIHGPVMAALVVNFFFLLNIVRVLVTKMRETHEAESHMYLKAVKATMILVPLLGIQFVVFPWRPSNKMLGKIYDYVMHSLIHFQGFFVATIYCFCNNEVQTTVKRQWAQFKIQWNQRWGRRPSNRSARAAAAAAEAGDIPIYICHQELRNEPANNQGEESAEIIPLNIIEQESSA


molecular target: T1, human calcitonin receptor; assay: cell-based or functional assay

Binder | hCTR funct. EC50
K([γGlu-C20 diacid])CNTATCATQRLANFLRHSSPNFGAIPSSTNVGSETY-NH2 (disulfide 2-7; N-terminus assumed; SMILES CC[C@H](C)[C@H](NC(=O)[C@H](C)NC(=O)CNC(=O)[C@H](Cc1ccccc1)NC(=O)[C@H](CC(N)=O)NC(=O)[C@@H]1CCCN1C(=O)[C@H](CO)NC(=O)[C@H](CO)NC(=O)[C@H](Cc1c[nH]cn1)NC(=O)[C@H](CCCNC(=N)N)NC(=O)[C@H](CC(C)C)NC(=O)[C@H](Cc1ccccc1)NC(=O)[C@H](CC(N)=O)NC(=O)[C@H](C)NC(=O)[C@H](CC(C)C)NC(=O)[C@H](CCCNC(=N)N)NC(=O)[C@H](CCC(N)=O)NC(=O)[C@@H](NC(=O)[C@H](C)NC(=O)[C@@H]1CSSC[C@H](NC(=O)[C@@H](N)CCCCNC(=O)CC[C@H](NC(=O)CCCCCCCCCCCCCCCCCCC(=O)O)C(=O)O)C(=O)N[C@@H](CC(N)=O)C(=O)N[C@@H]([C@@H](C)O)C(=O)N[C@@H](C)C(=O)N[C@@H]([C@@H](C)O)C(=O)N1)[C@@H](C)O)C(=O)N1CCC[C@H]1C(=O)N[C@@H](CO)C(=O)N[C@@H](CO)C(=O)N[C@H](C(=O)N[C@@H](CC(N)=O)C(=O)N[C@H](C(=O)NCC(=O)N[C@@H](CO)C(=O)N[C@@H](CCC(=O)O)C(=O)N[C@H](C(=O)N[C@@H](Cc1ccc(O)cc1)C(N)=O)[C@@H](C)O)C(C)C)[C@@H](C)O, analogue of human amylin; also called compound 27) [N^ε1-[(4S)-4-carboxy-4-(19-carboxynonadecanoylamino)butanoyl]-[Arg17,Pro21,Pro27,Glu35]-h-amylin] | 3 nM
K([γGlu-C20 diacid])CNTATCATQRLANFLRHSSPNFGAIPSSTNVGSKTY-NH2 (disulfide 2-7; N-terminus assumed; SMILES CC[C@H](C)[C@H](NC(=O)[C@H](C)NC(=O)CNC(=O)[C@H](Cc1ccccc1)NC(=O)[C@H](CC(N)=O)NC(=O)[C@@H]1CCCN1C(=O)[C@H](CO)NC(=O)[C@H](CO)NC(=O)[C@H](Cc1c[nH]cn1)NC(=O)[C@H](CCCNC(=N)N)NC(=O)[C@H](CC(C)C)NC(=O)[C@H](Cc1ccccc1)NC(=O)[C@H](CC(N)=O)NC(=O)[C@H](C)NC(=O)[C@H](CC(C)C)NC(=O)[C@H](CCCNC(=N)N)NC(=O)[C@H](CCC(N)=O)NC(=O)[C@@H](NC(=O)[C@H](C)NC(=O)[C@@H]1CSSC[C@H](NC(=O)[C@@H](N)CCCCNC(=O)CC[C@H](NC(=O)CCCCCCCCCCCCCCCCCCC(=O)O)C(=O)O)C(=O)N[C@@H](CC(N)=O)C(=O)N[C@@H]([C@@H](C)O)C(=O)N[C@@H](C)C(=O)N[C@@H]([C@@H](C)O)C(=O)N1)[C@@H](C)O)C(=O)N1CCC[C@H]1C(=O)N[C@@H](CO)C(=O)N[C@@H](CO)C(=O)N[C@H](C(=O)N[C@@H](CC(N)=O)C(=O)N[C@H](C(=O)NCC(=O)N[C@@H](CO)C(=O)N[C@@H](CCCCN)C(=O)N[C@H](C(=O)N[C@@H](Cc1ccc(O)cc1)C(N)=O)[C@@H](C)O)C(C)C)[C@@H](C)O, analogue of human amylin; also called compound 35) [N^ε1-[(4S)-4-carboxy-4-(19-carboxynonadecanoylamino)butanoyl]-[Arg17,Pro21,Pro27,Lys35]-h-amylin] | 5.46 nM
K([γGlu-C20 diacid])CNTATCATQRLANFLRHSSPNFGAIPSSTNVGSHTY-NH2 (disulfide 2-7; N-terminus assumed; SMILES CC[C@H](C)[C@H](NC(=O)[C@H](C)NC(=O)CNC(=O)[C@H](Cc1ccccc1)NC(=O)[C@H](CC(N)=O)NC(=O)[C@@H]1CCCN1C(=O)[C@H](CO)NC(=O)[C@H](CO)NC(=O)[C@H](Cc1c[nH]cn1)NC(=O)[C@H](CCCNC(=N)N)NC(=O)[C@H](CC(C)C)NC(=O)[C@H](Cc1ccccc1)NC(=O)[C@H](CC(N)=O)NC(=O)[C@H](C)NC(=O)[C@H](CC(C)C)NC(=O)[C@H](CCCNC(=N)N)NC(=O)[C@H](CCC(N)=O)NC(=O)[C@@H](NC(=O)[C@H](C)NC(=O)[C@@H]1CSSC[C@H](NC(=O)[C@@H](N)CCCCNC(=O)CC[C@H](NC(=O)CCCCCCCCCCCCCCCCCCC(=O)O)C(=O)O)C(=O)N[C@@H](CC(N)=O)C(=O)N[C@@H]([C@@H](C)O)C(=O)N[C@@H](C)C(=O)N[C@@H]([C@@H](C)O)C(=O)N1)[C@@H](C)O)C(=O)N1CCC[C@H]1C(=O)N[C@@H](CO)C(=O)N[C@@H](CO)C(=O)N[C@H](C(=O)N[C@@H](CC(N)=O)C(=O)N[C@H](C(=O)NCC(=O)N[C@@H](CO)C(=O)N[C@@H](Cc1c[nH]cn1)C(=O)N[C@H](C(=O)N[C@@H](Cc1ccc(O)cc1)C(N)=O)[C@@H](C)O)C(C)C)[C@@H](C)O, analogue of human amylin; also called compound 60) [N^ε1-[(4S)-4-carboxy-4-(19-carboxynonadecanoylamino)butanoyl]-[Arg17,Pro21,Pro27,His35]-h-amylin] | 5.36 nM

The remaining lines, values ahead:

hCTR funct. EC50 | Binder
0.539 nM | K([γGlu-C20 diacid])CNTATCATQRLAHFLRHSSPNFGAIPSSTPVGSNTY-NH2 (disulfide 2-7; N-terminus assumed; SMILES CC[C@H](C)[C@H](NC(=O)[C@H](C)NC(=O)CNC(=O)[C@H](Cc1ccccc1)NC(=O)[C@H](CC(N)=O)NC(=O)[C@@H]1CCCN1C(=O)[C@H](CO)NC(=O)[C@H](CO)NC(=O)[C@H](Cc1c[nH]cn1)NC(=O)[C@H](CCCNC(=N)N)NC(=O)[C@H](CC(C)C)NC(=O)[C@H](Cc1ccccc1)NC(=O)[C@H](Cc1c[nH]cn1)NC(=O)[C@H](C)NC(=O)[C@H](CC(C)C)NC(=O)[C@H](CCCNC(=N)N)NC(=O)[C@H](CCC(N)=O)NC(=O)[C@@H](NC(=O)[C@H](C)NC(=O)[C@@H]1CSSC[C@H](NC(=O)[C@@H](N)CCCCNC(=O)CC[C@H](NC(=O)CCCCCCCCCCCCCCCCCCC(=O)O)C(=O)O)C(=O)N[C@@H](CC(N)=O)C(=O)N[C@@H]([C@@H](C)O)C(=O)N[C@@H](C)C(=O)N[C@@H]([C@@H](C)O)C(=O)N1)[C@@H](C)O)C(=O)N1CCC[C@H]1C(=O)N[C@@H](CO)C(=O)N[C@@H](CO)C(=O)N[C@H](C(=O)N1CCC[C@H]1C(=O)N[C@H](C(=O)NCC(=O)N[C@@H](CO)C(=O)N[C@@H](CC(N)=O)C(=O)N[C@H](C(=O)N[C@@H](Cc1ccc(O)cc1)C(N)=O)[C@@H](C)O)C(C)C)[C@@H](C)O, analogue of human amylin; also called compound 62)
0.542 nM | K([γGlu-C20 diacid])CNTATCATQRLAHFLRHSSPNFGAIPSSTNVGSHTY-NH2 (disulfide 2-7; N-terminus assumed; SMILES CC[C@H](C)[C@H](NC(=O)[C@H](C)NC(=O)CNC(=O)[C@H](Cc1ccccc1)NC(=O)[C@H](CC(N)=O)NC(=O)[C@@H]1CCCN1C(=O)[C@H](CO)NC(=O)[C@H](CO)NC(=O)[C@H](Cc1c[nH]cn1)NC(=O)[C@H](CCCNC(=N)N)NC(=O)[C@H](CC(C)C)NC(=O)[C@H](Cc1ccccc1)NC(=O)[C@H](Cc1c[nH]cn1)NC(=O)[C@H](C)NC(=O)[C@H](CC(C)C)NC(=O)[C@H](CCCNC(=N)N)NC(=O)[C@H](CCC(N)=O)NC(=O)[C@@H](NC(=O)[C@H](C)NC(=O)[C@@H]1CSSC[C@H](NC(=O)[C@@H](N)CCCCNC(=O)CC[C@H](NC(=O)CCCCCCCCCCCCCCCCCCC(=O)O)C(=O)O)C(=O)N[C@@H](CC(N)=O)C(=O)N[C@@H]([C@@H](C)O)C(=O)N[C@@H](C)C(=O)N[C@@H]([C@@H](C)O)C(=O)N1)[C@@H](C)O)C(=O)N1CCC[C@H]1C(=O)N[C@@H](CO)C(=O)N[C@@H](CO)C(=O)N[C@H](C(=O)N[C@@H](CC(N)=O)C(=O)N[C@H](C(=O)NCC(=O)N[C@@H](CO)C(=O)N[C@@H](Cc1c[nH]cn1)C(=O)N[C@H](C(=O)N[C@@H](Cc1ccc(O)cc1)C(N)=O)[C@@H](C)O)C(C)C)[C@@H](C)O, analogue of human amylin; also called compound 66)
5.22 nM | K([γGlu-C20 diacid])CNTATCATQRLAEFLRHSSPNFGAIPSSTNVGSRTY-NH2 (disulfide 2-7; N-terminus assumed; SMILES CC[C@H](C)[C@H](NC(=O)[C@H](C)NC(=O)CNC(=O)[C@H](Cc1ccccc1)NC(=O)[C@H](CC(N)=O)NC(=O)[C@@H]1CCCN1C(=O)[C@H](CO)NC(=O)[C@H](CO)NC(=O)[C@H](Cc1c[nH]cn1)NC(=O)[C@H](CCCNC(=N)N)NC(=O)[C@H](CC(C)C)NC(=O)[C@H](Cc1ccccc1)NC(=O)[C@H](CCC(=O)O)NC(=O)[C@H](C)NC(=O)[C@H](CC(C)C)NC(=O)[C@H](CCCNC(=N)N)NC(=O)[C@H](CCC(N)=O)NC(=O)[C@@H](NC(=O)[C@H](C)NC(=O)[C@@H]1CSSC[C@H](NC(=O)[C@@H](N)CCCCNC(=O)CC[C@H](NC(=O)CCCCCCCCCCCCCCCCCCC(=O)O)C(=O)O)C(=O)N[C@@H](CC(N)=O)C(=O)N[C@@H]([C@@H](C)O)C(=O)N[C@@H](C)C(=O)N[C@@H]([C@@H](C)O)C(=O)N1)[C@@H](C)O)C(=O)N1CCC[C@H]1C(=O)N[C@@H](CO)C(=O)N[C@@H](CO)C(=O)N[C@H](C(=O)N[C@@H](CC(N)=O)C(=O)N[C@H](C(=O)NCC(=O)N[C@@H](CO)C(=O)N[C@@H](CCCNC(=N)N)C(=O)N[C@H](C(=O)N[C@@H](Cc1ccc(O)cc1)C(N)=O)[C@@H](C)O)C(C)C)[C@@H](C)O, analogue of human amylin; also called compound 51)
